From patent US20200010571A1 (Janssen / Centocor, published 2020)

How the values were obtained:
[1] = molecular target: T1, human IL-17A (recombinant) (human, UniProt Q16552 24-155); assay: cell-based or functional assay
[2] = molecular target: T1, human IL-17A (recombinant); assay: cell-based or functional assay; remark: listed apart in the source
[3] = molecular target: T2, recombinant human IL-17A/F heterodimer (human, UniProt Q16552 24-155; Q96PD4 31-163); assay: cell-based or functional assay
[4] = molecular target: T2, recombinant human IL-17A/F heterodimer; assay: cell-based or functional assay; remark: listed apart in the source
[5] = molecular target: T3, cynomolgus IL-17A (cynomolgus, UniProt Q16552 24-155 (human entry), limits assumed); assay: cell-based or functional assay
T3 chain: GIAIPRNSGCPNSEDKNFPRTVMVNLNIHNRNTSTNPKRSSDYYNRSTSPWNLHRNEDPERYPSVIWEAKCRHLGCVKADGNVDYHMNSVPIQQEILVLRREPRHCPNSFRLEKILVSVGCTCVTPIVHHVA

[6] = molecular target: T3, cynomolgus IL-17A; assay: cell-based or functional assay
[7] = molecular target: T1, human IL-17A (recombinant); assay: competition ELISA: biotinylated rhIL-17A binding to plate-coated rhIL-17RA-Fc; Experiment 1; 95% CI 0.03924-0.04274
Protocol: (§1) The plates were blocked for 1 hour with ELISA block buffer (1% BSA, 5% Sucrose and 0.05% Sodium Azide in PBS) and washed three times with wash buffer (0.05% Tween-20 in PBS). […] Plates were washed three times with wash buffer, and then incubated with SA-HRP (Jackson Immunoresearch) for 20 minutes at RT. Plates were washed three times with ELISA wash buffer. Following the wash, TMB substrate or OPD (BD & Sigma respectively) was added to each well and incubated until the appropriate color change was detected. The reaction was stopped with the addition of 2N sulfuric acid. […] ICso values were determined by non-linear regression using GraphPad Prism software (GraphPad Software, Inc). The results were plotted as mean values.

[8] = molecular target: T1, human IL-17A (recombinant); assay: competition ELISA: biotinylated rhIL-17A binding to plate-coated rhIL-17RA-Fc; Experiment 2; 95% CI 0.02829-0.03326
Protocol: as §1

[9] = molecular target: T1, human IL-17A (recombinant); assay: competition ELISA: biotinylated rhIL-17A binding to plate-coated rhIL-17RA-Fc; Experiment 3; 95% CI 0.06727-0.07636
Protocol: as §1

T2 sequence (Q96PD4 31-163, one chain of several): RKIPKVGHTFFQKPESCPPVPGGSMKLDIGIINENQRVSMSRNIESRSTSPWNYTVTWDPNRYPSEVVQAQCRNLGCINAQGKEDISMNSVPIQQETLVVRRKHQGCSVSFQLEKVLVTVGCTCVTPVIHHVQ

B1: mAb 7206 (parental anti-IL-17A antibody, IgG1, YTE) (antibody)
heavy: QVQLLESGGGLVQPGGSLRLSCAASGFTFSSYAMSWVRQAPGKGLEWVSTISLTSGFTYYADSVKGRFTISRDNSKNTLYLQMNSLRAEDTAVYYCARQLTLDVWGQGTLVTVSSASTKGPSVFPLAPSSKSTSGGTAALGCLVKDYFPEPVTVSWNSGALTSGVHTFPAVLQSSGLYSLSSVVTVPSSSLGTQTYICNVNHKPSNTKVDKKVEPKSCDKTHTCPPCPAPELLGGPSVFLFPPKPKDTLYITREPEVTCVVVDVSHEDPEVKFNWYVDGVEVHNAKTKPREEQYNSTYRVVSVLTVLHQDWLNGKEYKCKVSNKALPAPIEKTISKAKGQPREPQVYTLPPSREEMTKNQVSLTCLVKGFYPSDIAVEWESNGQPENNYKTTPPVLDSDGSFLLYSKLTVDKSRWQQGNVFSCSVMHEALHNHYTQKSLSLSPGK
light: QSVLTQPPSVSVAPGQTARISCSGDNLGDKYANWYQQKPGQAPVLVIYDDIDRPSGIPERFSGSNSGNTATLTISGTQAEDEADYYCGSYDFFLGMIVFGGGTKLTVLGQPKAAPSVTLFPPSSEELQANKATLVCLISDFYPGAVTVAWKADSSPVKAGVETTTPSKQSNNKYAASSYLSLTPEQWKSHRSYSCQVTHEGSTVEKTVAPTECS
IC50 (µg/mL); Inhibition of native IL-17A mediated GROα production by NHDF; Experiment 1 [1]: 0.0198 µg/mL
IC50 (µg/mL); Inhibition of native IL-17A mediated GROα production by NHDF; Experiment 2 [1]: 0.0265 µg/mL
IC50 (µg/mL); Inhibition of native IL-17A mediated GROα production by NHDF; Experiment 3 [1]: 0.0215 µg/mL
IC50 (µg/mL); Inhibition of native IL-17A mediated IL-6 production by NHDF; Experiment 1 [2]: 0.0214 µg/mL
IC50 (µg/mL); Inhibition of native IL-17A mediated IL-6 production by NHDF; Experiment 2 [2]: 0.0242 µg/mL
IC50 (µg/mL); Inhibition of native IL-17A mediated IL-6 production by NHDF; Experiment 3 [2]: 0.0232 µg/mL
IC50 (µg/mL); Inhibition of IL-17A/F mediated GROα production by NHDF; Experiment 1 [3]: 0.725 µg/mL
IC50 (µg/mL); Inhibition of IL-17A/F mediated GROα production by NHDF; Experiment 2 [3]: 0.393 µg/mL
IC50 (µg/mL); Inhibition of IL-17A/F mediated GROα production by NHDF; Experiment 3 [3]: 0.403 µg/mL
IC50 (µg/mL); Inhibition of IL-17A/F mediated IL-6 production by NHDF; Experiment 1 [4]: 0.344 µg/mL
IC50 (µg/mL); Inhibition of IL-17A/F mediated IL-6 production by NHDF; Experiment 2 [4]: 0.269 µg/mL
IC50 (µg/mL); Inhibition of IL-17A/F mediated IL-6 production by NHDF; Experiment 3 [4]: 0.545 µg/mL
IC50 (µg/mL); Inhibition of cyno IL-17A mediated GROα production by NHDF; Experiment 3 [5]: 0.0271 µg/mL
IC50 (µg/mL); Inhibition of cyno IL-17A mediated IL-6 production by NHDF; Experiment 3 [6]: 0.0326 µg/mL
IC50 [7]: 0.041 µg/mL
IC50 [8]: 0.0307 µg/mL
IC50 [9]: 0.0717 µg/mL
